In article PMC5454392, “Selective BET bromodomain inhibition as an antifungal therapeutic strategy” (Nature Communications, 2017):
Numbered stars: 1 amine (or outer) side, 2 acyl side, 3 side chain; on linkers, the order of the positions; unused ones are H or OH. Square brackets hold non-standard residues; d marks the D form. Ends that are not written are not given here. Arg(Me2a) = CN(C)C(=N)NCCC[C@H](N)C(=O)O; Kac = CC(=O)NCCCC[C@H](N[*:1])C(=O)[*:2]; Arg(Me2s) = CN=C(NC)NCCC[C@H](N)C(=O)O; pT = C[C@@H](OP(=O)(O)O)[C@H](N)C(=O)O; Lys(Me2) = CN(C)CCCC[C@H](N)C(=O)O; pS = N[C@@H](COP(=O)(O)O)C(=O)O; Lys(Me) = CNCCCC[C@H](N)C(=O)O; Me2a = not defined here

Assays:
[1] = target: T1, CaBdf1 BD1 (GST-tagged, wild-type) (Candida albicans (strain SC5314 / ATCC …, UniProt Q5A4W8)); experiment: histone peptide array (Active Motif MODified), 1 uM GST-tagged bromodomain, anti-GST detection, normalized mean intensity
T1 chain: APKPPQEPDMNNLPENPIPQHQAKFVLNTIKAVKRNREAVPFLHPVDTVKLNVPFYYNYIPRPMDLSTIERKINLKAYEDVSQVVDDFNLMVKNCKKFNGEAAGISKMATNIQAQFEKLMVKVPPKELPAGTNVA

[2] = target: T2, CaBdf1 BD2 (GST-tagged, wild-type) (Candida albicans (strain SC5314 / ATCC …, UniProt Q5A4W8)); experiment: as above
T2 chain: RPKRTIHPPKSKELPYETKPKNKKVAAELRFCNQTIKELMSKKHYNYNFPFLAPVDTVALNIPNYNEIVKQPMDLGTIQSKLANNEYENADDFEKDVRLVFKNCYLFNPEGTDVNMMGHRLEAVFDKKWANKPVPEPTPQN

Binder | binding score [1] | binding score [2]
ARTKQTARKSTGGKAPRKQ (A R T K Q T A R Kac S T G G Kac A P R K Q) | 0.095 | 0.0211
RKSAPATGGVKKPHRYRPG (not fully specified; histone peptide post-translational modifications (acetyl, methyl, phospho, citrulline) listed in columns 4-7 and embedded in the sequence text; N-terminus free or acetylated in column 8) | 0.00508 | 0.00296
EQKLISEEDLA (histone peptide post-translational modifications (acetyl, methyl, phospho, citrulline) listed in columns 4-7 and embedded in the sequence text; N-terminus free or acetylated in column 8) [c-myc tag] | 1.01 | 1
A[Arg(Me2s)][pT]K(Ac)QTARKSTGGKAPRKQ | 0.00761 | 0.00333
ART[Kac]QTA[Arg(Me2a)][Lys(Me2)]STGGKAPRKQ | 0.00761 | 0.00555
SGRGKQGGK(Ac)ARAK(Ac)AKSRSS | 0.178 | 0.0481
PDPAKSAPAPKKGSK(Ac)KAVT | 0.0199 | 0.00481
ARTKQTARKSTGGKAPRKQ (A Rme2s T Kme2 Q T A Rme2s Kme2 S T G G K A P R K Q) | 0.00435 | 0.00407
SGRGKGGKGLGKGGAKRHR (S G Rme2s G Kac G G K G L G K G G A K R H R) | 0.0225 | 0.00555
ARTK(Me)QTARKSTGGKAPRKQ | 0.000725 | 0.00185
ARTKQTARKSTGGKAPRKQ (A Rme2s T Kme2 Q T A Rme2s K S T G G K A P R K Q) | 0.00181 | 0.00629
A[Arg(Me2s)]T[Lys(Me2)]QTA[Arg(Me2a)][Lys(Me)]STGGKAPRKQ | 0.00544 | 0.0037
A[Arg(Me2s)]TKQTARKSTGGKAPRKQ | 0.000725 | 0.0037
ARTK(Ac)QTARKSTGGKAPRKQ | 0.00363 | 0.00222
PRKQLATKAAR(Me2s)K(Me2)[pS]APATGG | 0.00363 | 0.00074
PRKQLATKAAR(Me2s)K[pS]APATGG | 0.00181 | 0.00444
AR(me2s)TK(Me)QTAR(me2s)K(me3)STGGKAPRKQ | 0.0029 | 0.00629
ARTKQTARKSTGGKAPRKQ (A R T K Q T A Rme2a Kme3 pS T G G K A P R K Q) | 0.00254 | 0.00333
ARTKQTARKSTGGKAPRKQ (A R T K Q T A R Kme3 S T G G K A P R K Q) | 0.0029 | 0.00222
PDPAKSAPAPKKGSKKAVT (not fully specified) | 0.00435 | 0.00074
SGRGKGGKGLGKGGAKRHR (S G R G Kac G G K G L G K G G A K R H R) | 0.0185 | 0.0241
ARTKQTARKSTGGKAPRKQ (A R T K Q T A R Kme2 pS T G G K A P R K Q) | 0.00326 | 0.00333
PRKQLATKAA[Arg(Me2s)]K(Ac)[pS]APATGG | 0.00145 | 0.00629
ARTKQTARKSTGGKAPRKQ (A R T K Q T A R Kme3 S pT G G K A P R K Q) | 0.00363 | 0.0037
PRKQLATKAAR(Me2a)K(Me3)[pS]APATGG (reading uncertain) | 0.00218 | 0.00296
RKSAPATGGVKKPHRYRPG (R K S A P A T G G V Kme1 K P H R Y R P G) | 0.00616 | 0.00481

Binder | binding score [1] | binding score [2]
AR[pT]KQTARKSTGGKAPRKQ | 0 | 0.00259
ARTKQTARKSTGGKAPRKQ (A Rme2a T Kme1 Q T A Rme2a Kme1 S T G G K A P R K Q) | 0.00363 | 0.00259
SGRGK(Ac)QGGK(Ac)ARAK(Ac)AKSRSS | 0.0591 | 0.00888
PRKQLATKAARK(Me)SAPATGG | 0.00798 | 0.00333
SGRGKGGKGLGKGGAKRHR (S G R G K G G Kac G L G Kac G G A K R H R) | 0.0707 | 0.0418
SGRGKGGKGLGKGGAKRHR (pS G Rme2s G Kac G G K G L G K G G A K R H R) | 0.0131 | 0.00555
SGRGKGGKGLGKGGAKRHR (S G R G Kac G G Kac G L G Kac G G A Kac R H R) | 0.471 | 0.902
SGRGKGGKGLGKGGAKRHR (pS G Rme2a G Kac G G Kac G L G K G G A K R H R) | 0.0312 | 0.0396
ARTKQTARKSTGGKAPRKQ (A Rme2a T Kme3 Q T A Rme2s Kme1 S T G G K A P R K Q) | 0.00326 | 0.00407
ARTKQTARKSTGGKAPRKQ (A R T Kac Q T A Rme2a Kme1 S T G G K A P R K Q) | 0.00834 | 0.00555
[pS]GRGK(Ac)QGGKARAK(Ac)AKSRSS | 0.0964 | 0.0148
ARTKQTARKSTGGKAPRKQ (A R T K Q T A R Kme1 S pT G G K A P R K Q) | 0.00326 | 0.0037
PDPAK(Ac)SAPAPKK(Ac)GSK(Ac)KAVT | 0.0616 | 0.137
ARTKQTARKSTGGKAPRKQ (A Rme2a T Kme1 Q T A Rme2s Kme3 S T G G K A P R K Q) | 0.00471 | 0.00629
ARTKQTARKSTGGKAPRKQ (A R T K Q T A Rme2s K S T G G K A P R K Q) | 0.00218 | 0.00148
ARTKQTARKSTGGKAPRKQ (A R T K Q T A Rme2s Kme3 pS T G G K A P R K Q) | 0.00508 | 0.00333
PRKQLATKAARKSAPATGG (P R K Q L A T K A A Rme2a Kme2 S A P A T G G) | 0.00363 | 0.00555
PRKQLATKAARK(Ac)SAPATGG | 0.0138 | 0.0307
PRKQLATKAARKSAPATGG (P R K Q L A T K A A R Kme2 S A P A T G G) | 0.00254 | 0.00666
SGRGKGGKGLGKGGAKRHR (S G R G Kac G G Kac G L G K G G A K R H R) | 0.0294 | 0.0326
[pS]GRGKQGGKARAKAKSRSS | 0.0131 | 0.00592
A[Arg(Me2s)]T[Kac]QTA[Arg(Me2s)][Lys(Me2)]STGGKAPRKQ | 0.00725 | 0.00666
SGRGKGGKGLGKGGAKRHR (S G R G K G G K G L G Kac G G A Kac R H R) | 0.0743 | 0.0248
PDPAK(Ac)SAPAPKK(Ac)GSKKAVT | 0.017 | 0.00555
ARTKQTA[Arg(Me2s)][Lys(Me)][pS]TGGKAPRKQ | 0.00508 | 0.00259
